From PMC4837482, “The complex binding mode of the peptide hormone H2 relaxin to its receptor RXFP1” (Nature Communications, 2016)
Changes are numbered by the printed parent chain. Each block holds one molecule with its values, some of them ahead of it.

Tests used:
RXFP1(1–72) = molecular target: T1, RXFP1(1–72) (Homo sapiens, UniProt Q9HBX9); assay: NMR competition titration against the RXFP1(1–72)/Mn2+-DTPA-(A)-H2 complex; assay type: binding; conditions: 50 μM peptide added to 50 μM 15N-RXFP1(1–72) with 0.2 μM Mn2+-DTPA-(A)-H2; pH 6.8, 25 °C
T1 construct: GB1 (N, cleaved yes); made in house; host or cells: E. coli BL21 (DE3) trxB
T1 sequence (Q9HBX9 23-94 limits assumed): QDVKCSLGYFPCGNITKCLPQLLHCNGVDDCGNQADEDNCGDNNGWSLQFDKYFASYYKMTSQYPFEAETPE
Experimental: All RXFP1(1–72) protein samples for nuclear magnetic resonance (NMR) experiments were prepared from lyophilized protein in 50 mM imidazole, with 10 mM CaCl2 at pH 6.8. Recombinant human gene-2 H2 relaxin peptide was kindly provided by Corthera. EL1^(475–486)/EL2-GB1 samples were prepared as described above. Titrant and titrand were dialyzed in the same buffer in the same vessel. All NMR experiments were routinely collected at 25 °C on a 700-MHz Bruker Avance HDIII spectrometer equipped with triple resonance cryoprobe. […] Backbone assignments were made from 3D HNCACB, HNCOCACB, HNCO and HNCACO experiments. Spectra were processed using NMRPipe (ref. [43]) and typically Fourier-transformed after applying Lorentz-to-Gauss window functions in the direct dimension and cosine bells in the indirect dimensions. NMR data were analysed using SPARKY (Goddard, T.D. and Kneller, D.G., University of California, San Francisco). Assignments of the mutant RXFP1(1–72) proteins were determined from the assignments of wild-type RXFP1(1–72).
^15N{^1H}-NOE experiments[45] (2,048 × 256 data points) were acquired with a saturation pulse of 4 s and an additional relaxation delay of 5 s. Sample conditions were 150 μM RXFP(1–72) or mutants either without or with 450 μM H2 relaxin. Binding to Mn^2+-DTPA-(A)-H2 to RXFP1(1–72) and mutants was monitored by recording 2D ^1H-^15N HSQC (2,048 × 256 data points) for 0.2 μM Mn^2+-DTPA-(A)-H2 against 50 μM RXFP1(1–72). H2 relaxin and its truncates such as A-chain (9–24), H2/I5 chimera and Phe23Ala A-chain mutant H2 were titrated into a complex of 50 μM RXFP1(1–72) and 0.2 μM Mn^2+-DTPA-(A)-H2 with increasing concentrations ranging from 5 to 50 μM.

[1] = molecular target: T2, RXFP1 G41A/D42A, full length (human); assay: cell-based or functional assay
T2 chain: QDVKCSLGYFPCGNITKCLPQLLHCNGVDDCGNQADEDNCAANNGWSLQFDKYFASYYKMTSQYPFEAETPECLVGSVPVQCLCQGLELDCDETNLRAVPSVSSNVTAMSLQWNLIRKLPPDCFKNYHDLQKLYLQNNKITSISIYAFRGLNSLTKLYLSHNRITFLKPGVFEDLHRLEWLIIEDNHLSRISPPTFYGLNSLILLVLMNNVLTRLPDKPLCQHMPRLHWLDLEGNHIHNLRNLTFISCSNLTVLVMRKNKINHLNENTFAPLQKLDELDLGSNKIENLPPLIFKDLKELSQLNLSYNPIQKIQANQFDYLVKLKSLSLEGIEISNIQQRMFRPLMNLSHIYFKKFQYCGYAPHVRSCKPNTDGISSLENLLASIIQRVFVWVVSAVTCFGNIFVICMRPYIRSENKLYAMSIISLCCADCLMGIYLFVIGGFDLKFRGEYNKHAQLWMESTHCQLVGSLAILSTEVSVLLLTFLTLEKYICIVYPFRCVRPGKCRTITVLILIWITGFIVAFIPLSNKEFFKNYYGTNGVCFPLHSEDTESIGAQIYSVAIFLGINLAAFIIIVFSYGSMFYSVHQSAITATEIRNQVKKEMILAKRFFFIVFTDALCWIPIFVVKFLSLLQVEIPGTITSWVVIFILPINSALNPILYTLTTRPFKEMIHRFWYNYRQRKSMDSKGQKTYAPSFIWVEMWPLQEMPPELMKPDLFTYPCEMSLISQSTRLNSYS

[2] = molecular target: T3, RXFP1 G45A/W46A, full length (human); assay: cell-based or functional assay
T3 chain: T2 chain with A41G, A42D, G45A, W46A

Molecule: H2 relaxin: two-chain 6-kDa peptide hormone structurally related to insulin; recombinant human gene-2 H2 relaxin provided by Corthera
competition with Mn2+-DTPA-(A)-H2 for RXFP1(1–72) (peak intensities, chemical shifts) (RXFP1(1–72)): reappearance of the broadened peaks

H2 relaxin-induced cAMP response (pCRE β-galactosidase reporter, HEK293T), pEC50 [1]: 7.26 pEC50 | H2 relaxin-induced cAMP response (pCRE β-galactosidase reporter, HEK293T), pEC50 [2]: < 6 pEC50
B1: H2 relaxin (ligand, human)
chain 1: QLYSALANKCCHVGCTKRSLARFC
chain 2: DSWMEEVIKLCGRELVRAQIAICGMSTWS
